What was measured:
[1] = at one hour
Procedure: At the indicated times aliquots were withdrawn and the amount of intact parent peptide was determined as the area under the curve (AUC) of the A214 (absorbance at 214 nanometers) chromatogram;

trypsin [2] = assay: in vitro; conditions: 1% trypsin
trypsin [3] = conditions: 3% trypsin, after one hour

In the case of `CC[C@H](C)[C@@H]1NC(=O)[C@H](Cc2ccc(O)cc2)NC(=O)CNC(=O)[C@H](C(C)C)NC(=O)[C@H](C(C)C)NC(=O)[C@@H](NC(=O)[C@H](CC(N)=O)NC(=O)[C@@H]2CSSC[C@@H]3NC(=O)[C@H](Cc4ccc(O)cc4)NC(=O)CNC(=O)[C@H](CC(=O)O)NC(=O)[C@H](Cc4c[nH]cn4)NC(=O)[C@H](CO)NC(=O)[C@H](CC(C)C)NC(=O)[C@@H]4CCCN4C(=O)[C@@H](NC(=O)[C@H](CCC(=O)O)NC(=O)[C@H](CO)NC(=O)[C@H](CC(=O)O)NC(=O)[C@H](CO)NC(=O)[C@@H](N)CC(N)=O)CSSC[C@H](NC(=O)[C@H](C(C)C)NC(=O)CNC(=O)[C@H](CC(=O)O)NC(=O)[C@H](Cc4c[nH]cn4)NC(=O)[C@H](CC(C)C)NC3=O)C(=O)N[C@@H](CCSC)C(=O)N[C@@H](Cc3ccc(O)cc3)C(=O)N[C@@H]([C@@H](C)CC)C(=O)N[C@@H](CCC(=O)O)C(=O)N[C@@H](C)C(=O)N[C@@H](CC(C)C)C(=O)N[C@@H](CC(=O)O)C(=O)N[C@@H](CCCCN)C(=O)N[C@@H](Cc3ccc(O)cc3)C(=O)N[C@@H](C)C(=O)N2)CSSC[C@@H](C(=O)N[C@@H](CCC(N)=O)C(=O)N[C@@H](Cc2ccc(O)cc2)C(=O)N[C@@H](CCCNC(=N)N)C(=O)N[C@@H](CC(=O)O)C(=O)N[C@@H](CC(C)C)C(=O)N[C@@H](CCCCN)C(=O)N[C@@H](Cc2c[nH]c3ccccc23)C(=O)N[C@@H](Cc2c[nH]c3ccccc23)C(=O)N[C@@H](CCC(=O)O)C(=O)N[C@@H](CC(C)C)C(=O)N[C@@H](CCCNC(=N)N)C(=O)O)NC(=O)[C@H](CCCNC(=N)N)NC(=O)[C@H](CCC(=O)O)NC(=O)CNC1=O` [hEGF1-53], the “degradation in gastric fluid” value [1] is reported as “approaching almost complete degradation”, the metabolised at 1 h (trypsin [2]) is reported as ~50% and the degradation in trypsin (trypsin [3]) is reported as 90-100%.
